From IntAct's records for PubMed 15143060 come the findings set out here.

Sequences and labels used below:
B1: ADP-ribosylation factor-binding protein GGA1 (Homo sapiens), Q9UJY5 (parent)
chain: MEPAMEPETLEARINRATNPLNKELDWASINGFCEQLNEDFEGPPLATRLLAHKIQSPQEWEAIQALTVLETCMKSCGKRFHDEVGKFRFLNELIKVVSPKYLGSRTSEKVKNKILELLYSWTVGLPEEVKIAEAYQMLKKQGIVKSDPKLPDDTTFPLPPPRPKNVIFEDEEKSKMLARLLKSSHPEDLRAANKLIKEMVQEDQKRMEKISKRVNAIEEVNNNVKLLTEMVMSHSQGGAAAGSSEDLMKELYQRCERMRPTLFRLASDTEDNDEALAEILQANDNLTQVINLYKQLVRGEEVNGDATAGSIPGSTSALLDLSGLDLPPAGTTYPAMPTRPGEQASPEQPSASVSLLDDELMSLGLSDPTPPSGPSLDGTGWNSFQSSDATEPPAPALAQAPSMESRPPAQTSLPASSGLDDLDLLGKTLLQQSLPPESQQVRWEKQQPTPRLTLRDLQNKSSSCSSPSSSATSLLHTVSPEPPRPPQQPVPTELSLASITVPLESIKPSNILPVTVYDQHGFRILFHFARDPLPGRSDVLVVVVSMLSTAPQPIRNIVFQSAVPKVMKVKLQPPSGTELPAFNPIVHPSAITQVLLLANPQKEKVRLRYKLTFTMGDQTYNEMGDVDQFPPPETWGSL

The variants in this assay derive from B1. The conditions noted are these: with arf1_human ARF1, P84077.
Chain of arf1_human ARF1, P84077 (P84077 whole entry): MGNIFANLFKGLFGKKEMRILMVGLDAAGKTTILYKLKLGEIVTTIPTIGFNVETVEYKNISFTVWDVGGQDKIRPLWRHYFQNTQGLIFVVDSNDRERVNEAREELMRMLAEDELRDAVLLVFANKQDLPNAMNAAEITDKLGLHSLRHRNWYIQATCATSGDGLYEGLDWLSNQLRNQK
For L182A;N194A;I197A, the “effect of a mutation on the interaction” value is on record as “decreasing interaction”.
